Read-outs that look alike come from different tables or passages of the source. One block for each binder: values may come before it. Ends that are not written are not given here.
What was measured:
[1] = target: HLA-A*2401 (purified HLA class I molecule) (human); test: competition with 125I-labelled standard peptide for purified HLA, gel filtration
[2] = target: HLA-A*2401 (human); test: competition with 125I-labelled probe peptide for purified HLA, gel filtration
[3] = target: HLA-A*0202 (human); test: competition with 125I probe peptide on purified HLA, gel filtration; settings: remark: other sources report otherwise
[4] = target: HLA-A*2401 (human)
[5] = target: HLA-A*0203 (human); test: competition with 125I-labelled standard peptide for purified HLA, gel filtration; settings: remark: other sources report otherwise
[6] = target: HLA-A*0206 (human); test: as above; settings: remark: other sources report otherwise
[7] = target: HLA-A*0202 (human); test: as above; settings: remark: other sources report otherwise
[8] = target: HLA-A*0201 (human); test: as above; settings: remark: other sources report otherwise
[9] = target: HLA-A*2401 (human); remark: listed apart in the source
[10] = target: HLA-A*2401 (human); test: competition with 125I-labelled probe peptide for purified HLA, gel filtration; remark: listed apart in the source
[11] = target: HLA-A*0203 (human); test: competition with 125I probe peptide on purified HLA, gel filtration; settings: remark: other sources report otherwise
[12] = target: HLA-A*0201 (human); test: as above; settings: remark: other sources report otherwise
[13] = target: HLA-A*0206 (human); test: inhibition of 125I probe peptide binding to purified HLA, gel filtration; settings: remark: other sources report otherwise
[14] = target: HLA-A*2401 (purified HLA class I molecule) (human)
[15] = target: HLA-A*0203 (human); settings: remark: other sources report otherwise
[16] = target: HLA-A*0206 (human); settings: remark: other sources report otherwise
[17] = target: HLA-A*0201 (human); settings: remark: other sources report otherwise
[18] = target: HLA-A*0202 (human); settings: remark: other sources report otherwise
[19] = target: HLA-A*6802 (human); settings: remark: other sources report otherwise
[20] = target: HLA-A*0206 (human); test: inhibition of 125I probe peptide binding to purified HLA; settings: remark: other sources report otherwise
[21] = target: HLA-A*6802 (human); test: as above; settings: remark: other sources report otherwise
[22] = target: HLA-A*0203 (human); test: as above; settings: remark: other sources report otherwise
[23] = target: HLA-A*0202 (human); test: inhibition of 125I probe peptide binding to purified HLA, gel filtration; settings: remark: other sources report otherwise
[24] = target: HLA-A*0201 (human); test: as above; settings: remark: other sources report otherwise
[25] = target: HLA-A*0201 (human); test: inhibition of 125I probe peptide binding to purified HLA; settings: remark: other sources report otherwise
[26] = scale: ratio to standard peptide

IC50 [3]: 0.0009 µM
B3: Peptide 1166.11 … (PAP.196) (peptide)
peptide: GLHGQDLFGI

IC50 [11]: 0.256 µM
IC50 [12]: 0.073 µM
B8: Peptide 1177.02 … (PAP.299) (peptide)
peptide: ALDVYNGLL

IC50 [13]: 0.5 µM
B9: Peptide 63.0058 (PSA.166.V10) (peptide)
peptide: KLQCVDLHVV

IC50 [15]: 0.048 µM
IC50 [16]: 4.11 µM
IC50 [17]: 0.056 µM
B11: peptide 1418.19 (HuK2.170.V9) (peptide)
peptide: SLQCVSLHV

IC50 [15]: 0.0053 µM
IC50 [16]: 0.037 µM
IC50 [18]: 0.0013 µM
IC50 [19]: 0.86 µM
B15: peptide 1418.67 (HuK2.177.V11) (peptide)
peptide: HLLSNDMCARV

IC50 [15]: 0.154 µM
IC50 [16]: 0.552 µM
IC50 [17]: 0.104 µM
B17: peptide 1418.35 (HuK2.11.V10) (peptide)
peptide: SVGCTGAVPV

IC50 [16]: 0.446 µM
IC50 [18]: 0.0049 µM
IC50 [17]: 0.263 µM
IC50 [19]: 5 µM
B18: peptide 1419.66 (HuK2.170, 10-mer) (peptide)
peptide: SLQCVSLHLL

IC50 [20]: 0.086 µM
IC50 [21]: 2.29 µM
B19: Peptide 63.0034 … (PAP.30.V10) (peptide)
peptide: VLAKELKFVV

IC50 [15]: 0.417 µM
IC50 [18]: 0.051 µM
IC50 [17]: 0.5 µM
IC50 [19]: 2.58 µM
B23: peptide 60.0191 (HuK2.170, 9-mer) (peptide)
peptide: SLQCVSLHL

IC50 [11]: 0.909 µM
IC50 [3]: 0.269 µM
IC50 [12]: 0.455 µM
B25: Peptide 60.0207 … (PAP.128.V9) (peptide)
peptide: GVSIWNPIV

IC50 [22]: 0.0038 µM
IC50 [21]: 6.67 µM
B29: Peptide 63.0033 … (PAP.29.L2) (peptide)
peptide: SLLAKELKFV

IC50 [3]: 0.001 µM
B30: Peptide 1419.61 … (PAP.122.V10) (peptide)
peptide: ALFPPEGVSV

IC50 [13]: 0.128 µM
IC50 [23]: 0.518 µM
IC50 [24]: 0.069 µM
B31: Peptide 60.0220 (PSA.187.V9) (peptide)
peptide: KVTKFMLCV

IC50 [13]: 0.336 µM
IC50 [24]: 0.089 µM
B33: Peptide 63.0185 (PSA.1.V11) (peptide)
peptide: VVFLTLSVTWV

IC50 [17]: 0.2 µM
IC50 [19]: 5 µM
B34: peptide 63.0014 (HuK2.121) (peptide)
peptide: LMLLRLSEPA

IC50 [23]: 0.0084 µM
B36: Peptide 60.0216 (PSA.3.V9) (peptide)
peptide: FLTLSVTWV

IC50 [15]: 0.01 µM
IC50 [16]: 2.31 µM
IC50 [18]: 0.0008 µM
IC50 [17]: 0.0086 µM
IC50 [19]: 2.16 µM
B38: peptide 1418.66 (HuK2.175.V11) (peptide)
peptide: SLHLLSNDMCV

IC50 [13]: 2.85 µM
IC50 [23]: 0.159 µM
IC50 [24]: 0.385 µM
B39: Peptide 1419.25 (PSA.1) (peptide)
peptide: VVFLTLSVTWI

IC50 [22]: 0.037 µM
IC50 [20]: 3.7 µM
IC50 [25]: 0.385 µM
IC50 [21]: 6.67 µM
B40: Peptide 20.0312 … (PAP.112) (peptide)
peptide: TLMSAMTNLA

IC50 [24]: 0.05 µM
B41: Peptide 63.0109 (PSA.116.V11) (peptide)
peptide: DLMLLRLSEPV

Continued, binder first:

B1: PAP position 318, 9 amino acids (peptide)
peptide: LYFEKGEYF
relative binding ratio (IC50 of standard peptide / IC50 of test peptide) [1]: 2.5
relative binding ratio (IC50 of standard peptide / IC50 of test peptide) [2]: 2.5

B2: PAP position 123, 10 amino acids (peptide)
peptide: LFPPEGVSIW
relative binding ratio (IC50 of standard peptide / IC50 of test peptide) [1]: 0.014
relative binding ratio (IC50 of standard peptide / IC50 of test peptide) [2]: 0.014

B4: PAP position 205, 9 amino acids (…) (peptide)
peptide: IWSKVYDPL
relative binding ratio (IC50 of standard peptide / IC50 of test peptide) [4]: 0.0024

B5: Kallikrein position 142, 10 amino acids (peptide)
peptide: PTQEPALGTT
relative binding ratio (IC50 of standard peptide / IC50 of test peptide) [5]: 0.052
relative binding ratio (IC50 of standard peptide / IC50 of test peptide) [6]: 0.0037
relative binding ratio (IC50 of standard peptide / IC50 of test peptide) [7]: 0.022
relative binding ratio (IC50 of standard peptide / IC50 of test peptide) [8]: 0.0084

B6: PAP peptide, position 62, 9 amino acids (A24 supermotif) (peptide)
peptide: SWPQGFGQL
relative binding ratio (IC50 of standard peptide / IC50 of test peptide) [9]: 0.0013

B7: PAP position 22, 10 amino acids (peptide)
peptide: LFFWLDRSVL
relative binding ratio (IC50 of standard peptide / IC50 of test peptide) [10]: 0.0045
relative binding ratio (IC50 of standard peptide / IC50 of test peptide) [2]: 0.0045

B10: PAP (prostatic acid phosphatase) peptide, position 83, 10 amino acids (peptide)
peptide: EYIRKRYRKF
relative binding ratio (IC50 of standard peptide / IC50 of test peptide) [14]: 0.0067

B12: Kallikrein position 248, 10 amino acids (…) (peptide)
peptide: HYRKWIKDTI
relative binding ratio (IC50 of standard peptide / IC50 of test peptide) [4]: 0.055

B13: PAP peptide, position 88, 10 amino acids (A24 supermotif) (peptide)
peptide: RYRKFLNESY
relative binding ratio (IC50 of standard peptide / IC50 of test peptide) [9]: 0.0057

B14: Kallikrein (human kallikrein2) peptide, position 178, 10 amino acids (peptide)
peptide: LLSNDMCARA
modifications: not fully specified
relative binding ratio [5, 26]: 0.028
relative binding ratio [6, 26]: 0.002
relative binding ratio [7, 26]: 0.08
relative binding ratio [8, 26]: 0.003

B16: PSA position 222, 11 amino acids (peptide)
peptide: ITSWGSEPCAL
modifications: not fully specified
relative binding ratio [5]: 0.0096
relative binding ratio [6]: 0.0001
relative binding ratio [7]: 0.012
relative binding ratio [8]: 0.001

B20: PAP peptide, position 96, 9 amino acids (A24 supermotif) (peptide)
peptide: SYKHEQVYI
relative binding ratio (IC50 of standard peptide / IC50 of test peptide) [9]: 0.26

B21: PAP (prostatic acid phosphatase) peptide, position 17, 10 amino acids (peptide)
peptide: GFLFLLFFWL
relative binding ratio (IC50 of standard peptide / IC50 of test peptide) [14]: 0.0007

B22: PAP (prostatic acid phosphatase) peptide, position 17, 9 amino acids (peptide)
peptide: GFLFLLFFW
relative binding ratio (IC50 of standard peptide / IC50 of test peptide) [14]: 0.0016

B24: PSA position 174, 10 amino acids (peptide)
peptide: VISNDVCAQV
relative binding ratio (IC50 of standard peptide / IC50 of test peptide) [8]: 0.0008

B26: PAP position 213, 9 amino acids (peptide)
peptide: LYCESVHNF
relative binding ratio (IC50 of standard peptide / IC50 of test peptide) [1]: 0.44
relative binding ratio (IC50 of standard peptide / IC50 of test peptide) [2]: 0.44

B27: PAP position 123, 9 amino acids (peptide)
peptide: LFPPEGVSI
relative binding ratio (IC50 of standard peptide / IC50 of test peptide) [1]: 0.0033
relative binding ratio (IC50 of standard peptide / IC50 of test peptide) [2]: 0.0033

B28: Kallikrein position 8, 11 amino acids (peptide)
peptide: IALSVGCTGAV
relative binding ratio [5]: 0.027
relative binding ratio [6]: 0.01
relative binding ratio [7]: 0.0032
relative binding ratio [8]: 0.0009

B32: PSA peptide, position 119, 11 amino acids (peptide)
peptide: LLRLSEPAELT
relative binding ratio [6, 26]: 0.0002
relative binding ratio [8, 26]: 0.0023

B35: PAP (prostatic acid phosphatase) peptide, position 23, 9 amino acids (peptide)
peptide: FFWLDRSVL
relative binding ratio (IC50 of standard peptide / IC50 of test peptide) [14]: 0.0017

B37: PSA peptide, position 4, 10 amino acids (peptide)
peptide: LTLSVTWIGA
relative binding ratio [5, 26]: 0.082
relative binding ratio [6, 26]: 0.011
relative binding ratio [7, 26]: 0.045
relative binding ratio [8, 26]: 0.0018

B42: Kallikrein position 156, 10 amino acids (…) (peptide)
peptide: GWGSIEPEEF
relative binding ratio (IC50 of standard peptide / IC50 of test peptide) [4]: 0.0001
